Source: the RNAGym collection of RNA variant scans (doi:10.1073/pnas.2313332121)

B1: TPR t1 (parent)
chain: GACCAAUCUGCCCUCAGAGCUCGAGAACAUCUUCGGAUGCAGAGGAGGCAGGCUUCGGUGGCGCGAUAGCGCCAACGUCCUCAACCUCCAAUGCAUCCCACCACAUGAUGAUGCCUGAAGAGCCUUGGUUUUUUG

Variants of: B1
Assay: polymerase ribozyme fitness, log enrichment relative to wild type (log ratio); higher = more active; in vitro selection for triplet polymerase activity
How it was run: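 Input and output libraries were sequenced on Illumina after a single in vitro selection round, run in triplicate on PCR-built, transcribed mutant libraries of each subunit of a heterodimeric triplet polymerase ribozyme. Selection annealed libraries to a biotinylated primer, the partner subunit and triplets, incubated them frozen at −7 °C, then gel-excised extended constructs for streptavidin-bead capture and RT-PCR. Genotypes with ≥10 input reads and ≥1 read per output were kept. Fitness is the logarithm, taken in base 2, of genotype enrichment divided by wild-type enrichment, using inverse-variance-weighted replicate averages.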

Variant	polymerase ribozyme fitness (log ratio)
C13G C72U U132A	-2.7
C13U A27U	-2.33
C13U A27C	-2.05
C13U A16C U106G	-2.43
C13U A26G G60C G93C	-3.34
C13U C15U C20U U81A A90C C115U	-4.72
C13U A16C A84U U129A	-3.48
C13U C15U U32G C124A	-6.8
C13G U32C	-2.08
C13U A46G	-1.03
C13G G45C C53U G63U C88A	-3.62
C13G G61A C70G C123U	-5.1
C13G U54C C89U A90U	-3.33
C13G G57C C72U G113A	-2.96
C13G C89G	-3.05
C13G C89A A90C U130C	-3.77
C13U A18C A90C U96A	-2.27
C13U A16C C101G	-2.83
C13U A37G A118G G127U G128U U131G	-0.0788
C13U A41U G63U	-2.71
C13U A26C C56U	-5.2
C13G G57U	-1.94
C13U A18C G77A	-1.41
C13U C15U A27C A29G C73U	-4.69

Variant	polymerase ribozyme fitness (log ratio)
C13G G60A	-1.21
C13G G60U	-2.05
C13U A84U	-0.00977
C13G C114A	-2.59
C13G G51U A84C G127U	-6.59
C13G G47U G77U	-3.79
C13G C72G C123U G135U	-0.121
C13G C70U U112G	-2.26
C13U A16G G63A U87A C98A C123G	-6.74
C13U A46U U54G A95U C123U	1.11
C13G U59G G61U U112C	-1.62
C13G G61A C82A	-2.32
C13U C20A A27G G39A G60A C115A	-5.26
C13U A18C A37C G39U G57A	-6.61
C13U A26U C40U	-2.81
C13U A16U G45U G60U A95U C97U	-2.68
C13G U133A	-2.17
C13G C72A	-0.649
C13G C72G	-0.869
C13U A66C U106A	-0.839
C13U A16C G48C U59A A68G A100C A121C	-7.2
C13G G69U	-0.536
C13U A41G C49G U87A	-0.587
C13G G117C	-4.58

Variant	polymerase ribozyme fitness (log ratio)
C13G C72G C85A	-3.33
C13G G19U G71C U112C	-4.61
C13G C82A	-2.47
C13G G36C C56A U78A A90G G135U	-4.08
C13U A16C	-0.368
C13G C124U	0.0672
C13U A43U U59G C72A C104U	-2.63
C13U A27C A83U A84C C86A	-3.39
C13G U78C A121C	0.61
C13G U96C C101A	-3.35
C13U C20A U21G A24C G71C U112C C123A	-6.62
C13G C99U	-4.01
C13G G57C U109A A111U	-4.71
C13G G93A C101G U112C U130A	-4.16
C13G G47C A95C	-4.32
C13U C20U A74U U92A	-3.91
C13G C76U	-1.95
C13G G17U A18U C40G C56A G107A C114U	-6.86
C13G G44A	-2.85
C13G C72G C102G G113A G128A	-5.75
C13G C82G C102A	-4.14
C13G G19U C73U G113U	-5.86
C13G G63U C72U	-2.72
C13U A16G A50U A90G	-0.51

Variant	polymerase ribozyme fitness (log ratio)
C13U A16C C73A A95U G117U C124G	-1.04
C13G C115A	-1.77
C13U A41G G48A G57U U132C	-1.47
C13G G39A G113U C114A	-4.57
C13G G47U C73U C114A	-4.1
C13G G69A C124A G128A	-4.44
C13G G19U	-4.76
C13G G39C G113C	-3.84
C13U A29U U55A G60A C101G	-4.15
C13U A24G G36U C53U C79G C98U C99A	-7.05
C13G C123G	1.77
C13G G36A A95C	-4.52
C13G U59A	-1.41
C13U A18U A43C U59C G71U A105U	-4.76
C13G G19U G61U C73U G113U	-5.34
C13G C73A A90C U92C U126A	-5.92
C13U A46G C104G	-5.37
C13U A90U G117C	-3.61
C13U A18U G35U A50G G71A C124G	-7.8
C13G G58U G60C G117U C123A	-2.6
C13G C82A A84G C123A	-0.276
C13U A26G	-2.64
C13U A26U C40A U112A	-4.39
C13U C15U	-2.01

Variant	polymerase ribozyme fitness (log ratio)
C13U A66G C76U C88U G128C	-3.51
C13G U112A	0.148
C13U A24G G69U C104U A111U	-1.91
C13G G45U C72U C89A G120U U130A	-2.6
C13U A37C G57U	-0.0732
C13G U14G C15A G71A G122A	-4.63
C13G G47A C88U C102U U116G C123A	-4.62
C13G G36U C101U U112C	-1.75
C13U C20U A83G U96A	-3.34
C13U A29U A46U C56A C115U	-2.01
C13U A24G C70A C73A C104U A111U	-6.33
C13U A43C G71A C73G C82A C98G C102A A105U G117C	-6.52
C13G G48A G63A A83C	-3.74
C13G G52C G71A	-3.97
C13G U33C C72U U81A C101G G110U U132A	-6.08
C13U A18C C88G U92A	-2.48
C13U C22U C82A C94A A121U U130A	-3.54
C13U C22G A41U C72U U78G U81C G122A	-4.05
C13U C15A A91C	-4.3
C13G G127C	-1.12
C13G G127U	-2.53
C13U A37U A66G	-0.629
C13G G47A C72U G110C	-7.11
C13G G44A G63U G120U C123G	-0.471

Variant	polymerase ribozyme fitness (log ratio)
C13U A26G G60A G93C	-4.31
C13U A46G A50U C53U U129C	-2.72
C13U C20A C72A	-2.75
C13G G25A C56G A91G C99U G120U	-7.51
C13G U32C A37G C49U	-1.77
C13U A68G C73U U112G	-3.26
C13U C20U	-0.561
C13U C20A	-2.74
C13G G58C C64U U92C	-3.39
C13G G63C U87C	-3.11
C13U C20U G51A A66G C72U U109A	-6.73
C13G U96C	-2.28
C13U C20U G120C C123G G127A	-2.54
C13G G71C U112C G117C U125C	-5.67
C13G G113U	-2.94
C13G C72U C94U C101G	-4.88
C13G C124A G128U	-0.0372
C13G G47A G63U U96G	-3.63
C13G U78C	-0.825
C13U A50U G77C	-1
C13U A43G G60A U92G U116C	-3.1
C13U A16C A91G C104U	-1.72
C13U A66U U116C	-0.492
C13G G69U G113A	-2.1

Variant	polymerase ribozyme fitness (log ratio)
C13U C20U G61A U92C	-1.11
C13G C102A	-3.6
C13G G39U G63U C115U	-5.78
C13U A16G A121U U129A	1.78
C13U C22G G44A C56A	-5.28
C13G C73A U81G A121G	-1.23
C13U A29G G52U A74C	-1.84
C13G G120A	-0.711
C13G G39U	-2.13
C13G G39A	-2.78
C13G G63A G71A U112C	-5
C13U C20G C62G C104A G110U A121U	-6.79
C13U A50U G77C A121G C123U C124U G128U U131C	0.387
C13U A41G G60A C94U C115U	-1.95
C13G U125A	-1.62
C13G C82A G128C	-3.69
C13U C20U G61U C70U U92C	-4.03
C13G G93A G113C A118U	-5.1
C13G U21C C49U C53G G117A A119G	-5.71
C13G C79A C86A	-5.8
C13G G17U U38A C49G G61U	-4.63
C13U A29U	-1.8
C13U A105C	-1.68
